We go through 15 molecules from publication PMC5828407 (Veterinary Research, 2018).

Sequences and labels used below:
B1: APN∆1 (401–963 AA) (domain or fragment)
chain: DLWLNEGFASYVEYLGADHAEPTWNLKDLIVPGDVYRVMAVDALASSHPLTTPAEEVNTPAQISEMFDSISYSKGASVIRMLSNFLTEDLFKEGLASYLHAFAYQNTTYLDLWEHLQKAVDAQTSIRLPDTVRAIMDRWTLQMGFPVITVDTKTGNISQKHFLLDSESNVTRSSAFDYLWIVPISSIKNGVMQDHYWLRDVSQAQNDLFKTASDDWVLLNVNVTGYFQVNYDEDNWRMIQHQLQTNLSVIPVINRAQVIYDSFNLATAHMVPVTLALDNTLFLNGEKEYMPWQAALSSLSYFSLMFDRSEVYGPMKKYLRKQVEPLFQHFETLTKNWTERPENLMDQYSEINAISTACSNGLPQCENLAKTLFDQWMSDPENNPIHPNLRSTIYCNAIAQGGQDQWDFAWGQLQQAQLVNEADKLRSALACSNEVWLLNRYLGYTLNPDLIRKQDATSTINSIASNVIGQPLAWDFVQSNWKKLFQDYGGGSFSFSNLIQGVTRRFSSEFELQQLEQFKKNNMDVGFGSGTRALEQALEKTKANIKWVKENKEVVLNWFIEHS
B2: APN∆5 (332–963 AA) (domain or fragment)
chain: PLPKSDQIALPDFNAGAMENWGLVTYRENALLFDPQSSSISNKERVVTVIAHELAHQWFGNLVTLAWWNDLWLNEGFASYVEYLGADHAEPTWNLKDLIVPGDVYRVMAVDALASSHPLTTPAEEVNTPAQISEMFDSISYSKGASVIRMLSNFLTEDLFKEGLASYLHAFAYQNTTYLDLWEHLQKAVDAQTSIRLPDTVRAIMDRWTLQMGFPVITVDTKTGNISQKHFLLDSESNVTRSSAFDYLWIVPISSIKNGVMQDHYWLRDVSQAQNDLFKTASDDWVLLNVNVTGYFQVNYDEDNWRMIQHQLQTNLSVIPVINRAQVIYDSFNLATAHMVPVTLALDNTLFLNGEKEYMPWQAALSSLSYFSLMFDRSEVYGPMKKYLRKQVEPLFQHFETLTKNWTERPENLMDQYSEINAISTACSNGLPQCENLAKTLFDQWMSDPENNPIHPNLRSTIYCNAIAQGGQDQWDFAWGQLQQAQLVNEADKLRSALACSNEVWLLNRYLGYTLNPDLIRKQDATSTINSIASNVIGQPLAWDFVQSNWKKLFQDYGGGSFSFSNLIQGVTRRFSSEFELQQLEQFKKNNMDVGFGSGTRALEQALEKTKANIKWVKENKEVVLNWFIEHS

Where no end group is shown, it is not given here. The star is where a group is joined. FITC = O=C1OC2(c3ccc(O)cc3Oc3cc(O)ccc32)c2ccc(NC(=S)*)cc21; Ahx = NCCCCCC(=O)O

What all share (conditions): both partners purified
In test [1] the target is T1, porcine aminopeptidase N (APN), His-tagged whole protein (porcine, UniProt P15145 1-963).
T1 sequence: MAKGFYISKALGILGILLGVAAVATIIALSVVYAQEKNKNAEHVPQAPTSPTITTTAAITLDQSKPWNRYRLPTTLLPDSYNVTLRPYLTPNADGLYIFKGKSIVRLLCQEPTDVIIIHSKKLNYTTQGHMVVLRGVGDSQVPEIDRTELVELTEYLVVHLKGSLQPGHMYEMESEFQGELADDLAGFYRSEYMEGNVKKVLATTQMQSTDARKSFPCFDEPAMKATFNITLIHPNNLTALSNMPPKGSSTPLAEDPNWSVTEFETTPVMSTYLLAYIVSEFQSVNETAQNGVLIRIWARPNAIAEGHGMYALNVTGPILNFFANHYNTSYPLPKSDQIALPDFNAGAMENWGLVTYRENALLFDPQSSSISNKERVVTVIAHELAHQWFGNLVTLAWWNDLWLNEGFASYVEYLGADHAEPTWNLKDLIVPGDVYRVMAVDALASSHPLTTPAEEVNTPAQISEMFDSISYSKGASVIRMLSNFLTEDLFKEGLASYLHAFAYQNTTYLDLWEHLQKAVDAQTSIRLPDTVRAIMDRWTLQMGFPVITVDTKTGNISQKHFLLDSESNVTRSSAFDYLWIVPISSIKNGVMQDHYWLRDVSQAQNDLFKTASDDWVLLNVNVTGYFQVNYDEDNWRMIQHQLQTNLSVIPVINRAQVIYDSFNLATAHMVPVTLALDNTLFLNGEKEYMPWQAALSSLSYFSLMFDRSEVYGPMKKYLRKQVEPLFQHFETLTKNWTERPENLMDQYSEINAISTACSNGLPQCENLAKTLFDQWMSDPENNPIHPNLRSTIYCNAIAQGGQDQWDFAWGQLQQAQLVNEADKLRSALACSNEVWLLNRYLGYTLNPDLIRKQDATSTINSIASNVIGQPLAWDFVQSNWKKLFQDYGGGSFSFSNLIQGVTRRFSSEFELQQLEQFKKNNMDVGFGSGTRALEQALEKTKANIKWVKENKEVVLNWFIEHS
Description: peptide or protein array; FaeG membrane: 205 spots of 13-mers offset by 3 on cellulose membrane, incubated with 1 mg/mL purified soluble APN, blotted with polyclonal antibodies against APN; intensity > 30% of the strongest spot positive.

In test [2] the target is T1, porcine aminopeptidase N (APN), …. Briefly: ELISA; APN protein coated on plates, incubated with FaeG peptides, fusion FaeG proteins or F4 fimbriae; absorbance at 450 nm. For orientation: In an ELISA, binding on a coated surface is turned into a signal by an enzyme label.
For test [3], the target named is GST-tagged FaeG fusion protein of F4ac (Escherichia coli, UniProt P14190 22-283). Description: ELISA; indirect ELISA: APN and its five truncated proteins coated at 100 μg/mL in carbonate-bicarbonate buffer pH 9.6, incubated with 100 μg/mL FaeG fusion protein, detected with anti-F4 monoclonal antibody.
The test “APN∆5 (332–963 AA)” deals with B2. Described as above.
The test “APN∆1 (401–963 AA)” has as its target B1. The test is described as above.

Regarding LRAIFYGGLTTTV [FaeG membrane spot 59 (175–187 AA), F4ab], in test [1], the binding result is “binds”. The same measure, in the same setting: as for ARTELFGSLSKNDILGQIQ [FaeG membrane spots 189–191 (200–218 AA), F4ad], the entry is “binds”. On the same count and under the same terms, as for TKLFGSLSRNDILGQIQRV [FaeG membrane spots 133–135 (200–218 AA), F4ac], the entry is “binds”.

With {FITC-Ahx}-TKLFGSLSRNDILGQIQRV [peptide F4ac 200–218], the binding result in test [2] is “binds”.

As to NASYAGVFGKGGV [FaeG membrane spot 50 (148–160 AA), F4ab], in test [1], the binding result is recorded as “binds”. On the same count and under the same terms, under LSSIFYGGLPRGS [FaeG membrane spot 125 (176–188 AA), F4ac] stands “binds”; under HAIFYGGLPTNVK [FaeG membrane spot 181 (176–188 AA), F4ad], “binds”. In the case of B1, the binding result in test [3] is “binds”. Still for that read-out and setting: under B2 stands “binds”. With NASYAGVLGRGGV [FaeG membrane spot 116 (149–161 AA), F4ac], in test [1], the binding result is “binds”.

B3: GST-tagged FaeG fusion protein of F4ad (natural protein)
chain: WMTGDFNGSVDIGGSITADDYRQKWEWKVGTGLNGFGNVLNDLTNGGTKLTITVTGNKPILLGRTKEAFATPVTSGVDGIPHIAFTDYEGASVELRNPDGETEKGLAYFVLPMKNAEGTKVGSVKVNASYAGALGRGGVTSADGELMSLFAEGSHAIFYGGLPTNVKNSELKGGSAAAARTELFGSLSKNDILGQIQRVNANITSLVNVPGSFNENMAYTDGSVVSVAYALGIANGQTIEATFNQAVTTSTQWSAPLNVAITYY
On to B3, for which the binding result (in test [2]; with APN∆5 (332–963 AA); in the test with APN∆1 (401–963 AA)) was “binds” in each case.

{FITC-Ahx}-NASYAGVFGKGGV [peptide F4ab 148–160]: the binding result in test [2] is listed as “binds”.

B4: GST-tagged FaeG fusion protein of F4ab (natural protein)
chain: WMTGDFNGSVDIGGSITADDYRQKWEWKVGTGLNGFGNVLNDLTNGGTKLTITVTGNKPILLGRTKEAFATPVSGGVDGIPQIAFTDYEGASVKLRNTDGETNKGLAYFVLPMKNAEGTKVGSVKVNASYAGVFGKGGVTSADGELFSLFADGLRAIFYGGLTTTVSGAALTSGSAAAARTELFGSLSRNDILGQIQRVNANITSLVDVAGSYREDMEYTDGTVVSAAYALGIANGQTIEATFNQAVTTSTQWSAPLNVAITYY
As for B4, the binding result (in test [2]; with APN∆5 (332–963 AA); with APN∆1 (401–963 AA)) was “binds” throughout. With ASYAGALGRGGVT [FaeG membrane spot 172 (149–161 AA), F4ad], the binding result in test [1] is on record as “binds”. {FITC-Ahx}-ARTELFGSLSKNDILGQIQ [peptide F4ad 200–218]: the binding result in test [2] is given as “binds”.
